Laboratory results as given in patent publication US20220362303A1.

Biological target: trypsin (T9253, Merck Life Sciences) (UniProt P00760)
Experiment: cell-based or functional assay

T9253 sequence (P00760 24-246): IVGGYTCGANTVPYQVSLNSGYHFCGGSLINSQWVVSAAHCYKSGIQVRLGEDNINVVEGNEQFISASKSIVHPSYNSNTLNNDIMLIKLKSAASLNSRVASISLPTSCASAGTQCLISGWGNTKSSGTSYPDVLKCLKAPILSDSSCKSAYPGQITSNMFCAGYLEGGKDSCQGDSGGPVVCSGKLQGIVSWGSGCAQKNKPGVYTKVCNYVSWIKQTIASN

Substance	µg trypsin inhibited (BAPNA trypsin inhibition assay, casein at 0.1 mg/ml) (µg trypsin inhibited)	µg trypsin inhibited by 1 mg sample (BAPNA trypsin inhibition assay) (µg trypsin inhibited by 1 mg sample)
calcium caseinate (C16)	0.34	3.24
Ovomucoid (Sigma, USA) (from UniProt P01005 25-210)	–	703
soya bean trypsin inhibitor (SBTI, Roche, Calif., USA) (from UniProt P01070 25-205)	–	838
Human EGF (Peprotech, New Jersey, USA) (from UniProt P01133 971-1023) (ligand)	–	1.43
